Measured values reported in patent US20230042465A1 (Janssen / Centocor, published 2023).
Residue numbers refer to the chain shown, from its start. Names and notes keep the numbering of the source.

T1: human lymphotoxin (human, UniProt P01374 35-205, limits assumed)
T1 sequence (looked up): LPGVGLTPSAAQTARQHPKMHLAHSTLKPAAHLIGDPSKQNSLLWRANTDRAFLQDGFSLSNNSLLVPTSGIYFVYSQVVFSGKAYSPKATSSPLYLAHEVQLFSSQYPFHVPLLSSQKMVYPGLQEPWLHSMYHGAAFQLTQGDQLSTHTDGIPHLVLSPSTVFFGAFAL

B1: TNV148 (antibody, human IgG1, kappa, V domains shown)
VH: QVQLVESGGGVVQPGRSLRLSCAASGFIFSSYAMHWVRQAPGNGLEWVAFMSYDGSNKKYADSVKGRFTISRDNPKNTLYLQMNSLRAEDTAVYYCARDRGIAAGGNYYYYGMDVWGQGTTVTVSS
VL: EIVLTQSPATLSLSPGERATLSCRASQSVYSYLAWYQQKPGQAPRLLIYDASNRATGIPARFSGSGSGTDFTLTISSLEPEDFAVYYCQQRSNWPPFTFGPGTKVDIKR
notes: also called GenTNV148.26.12; C420A
B2: TNV86 (antibody, V domains shown)
VH: B1 VH
VL: B1 VL
notes: Hybridoma IgG1 kappa; also called GenTNV86.14.34; C417A
B3: golimumab (SIMPONI) (antibody, human IgG1, kappa, V domains shown)
VH: B1 VH with P75S
VL: B1 VL
modifications: N-glycosylated on asparagine 306
notes: also called rTNV148B

Legend:
[1] = molecular target: T2, recombinant human TNFα (human, UniProt P01375 77-233, 125I-labeled in the receptor binding assay); assay: cell-based or functional assay
[2] = molecular target: T2, recombinant human TNFα; assay: competition radioligand assay: mAb in hybridoma supernatant preincubated with 5 ng/ml 125I-TNFα, then 125I-TNFα bound to plate-coated p55-sf2 counted as cpm
Protocol: The amount of TNFα that bound to the p55 receptor in the presence of the mAbs was determined after washing away the unbound material and counting using a gamma counter. […] Each sample was tested in duplicate. The results shown are representative of two independent experiments.
(§1) 50:l of p55-sf2 at 0.5:g/ml in PBS was added to Optiplates to coat the wells during a one-hour incubation at 37° C. Serial dilutions of the eight TNV cell supernatants were prepared in 96-well round-bottom plates using PBS/0.1% BSA as diluent. […] The mixture was preincubated for one hour at RT. The coated Optiplates were washed to remove unbound p55-sf2 and 50:l of the ¹²⁵I-TNFα/cell supernatant mixture was transferred to the Optiplates. After 2 hrs at RT, Optiplates were washed three times with PBS-Tween. 100:l of Microscint-20 was added and the cpm bound determined using the TopCount gamma counter.
A simple binding assay was done to determine whether the eight TNV mAbs contained in hybridoma cell supernatant were capable of blocking TNFα binding to receptor.

[3] = molecular target: T2, recombinant human TNFα; assay: inhibition of 125I-TNFα binding to plate-coated p55-sf2, hybridoma supernatant
Protocol: as §1
A simple binding assay was done to determine whether the eight TNV mAbs contained in hybridoma cell supernatant were capable of blocking TNFα binding to receptor. The concentrations of the TNV mAbs in their respective cell supernatants were first determined by standard ELISA analysis for human IgG.

[4] = molecular target: T1, human lymphotoxin; assay: not described

Binder	neutralizing TNFα bioactivity [1] [fold]	IC50 (read off the curve) [2] [ng/mL]	fold better at blocking TNF binding than TNV118 and TNV14 [3] [fold]	binding result [4]
B1	4	~4	~4	
B2			~4	
B3				no binding
